Test results published in PMC10331486, “Characterization of an evolutionarily distinct bacterial ceramide kinase from Caulobacter crescentus” (The Journal of Biological Chemistry, 2023).
Each block holds one molecule with its values, some of them ahead of it.

Key:
[1] = molecular target: T1, CpgB (CCNA_01218), bacterial ceramide kinase (Caulobacter vibrioides, UniProt A0A0H3C600); test: NBD-ceramide kinase assay, TLC fluorescence imaging; format: biochemical; conditions: read-out: % inhibition at 300 nM
T1 construct: full-length gene, N-terminal His tag (pET28a NdeI/EcoRI), expressed in E. coli BL21(DE3), HisTrap purified, soluble; tag removal not mentioned
T1 sequence (A0A0H3C600 1-330): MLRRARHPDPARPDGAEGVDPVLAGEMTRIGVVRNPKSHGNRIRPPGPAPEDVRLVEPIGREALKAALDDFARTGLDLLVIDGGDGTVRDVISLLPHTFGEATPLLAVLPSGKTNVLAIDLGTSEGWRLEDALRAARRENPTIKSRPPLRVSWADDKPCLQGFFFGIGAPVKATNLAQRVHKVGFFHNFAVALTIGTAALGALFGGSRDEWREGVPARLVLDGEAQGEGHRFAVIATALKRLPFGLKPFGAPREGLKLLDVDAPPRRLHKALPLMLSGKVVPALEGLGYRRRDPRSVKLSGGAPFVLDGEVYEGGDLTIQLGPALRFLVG

[2] = substrate: CCCCCCCCCCCCC/C=C/[C@@H](O)[C@H](CO)NC(=O)CCCCCNc1ccc([N+](=O)[O-])c2nonc12; test: as above; format: biochemical, Caulobacter vibrioides; conditions: 1 mM ATP fixed, 15 mM Mg2+, 20 mM Hepes pH 7.4, 30 °C, labelled compound (fluorescent NBD)
[3] = substrate: Nc1ncnc2c1ncn2[C@@H]1O[C@H](COP(=O)(O)OP(=O)(O)OP(=O)(O)O)[C@@H](O)[C@H]1O; test: purified protein; conditions: 160 μM NBD-C6-ceramide fixed, 15 mM Mg2+, 20 mM Hepes pH 7.4, 30 °C

inhibition at 0.3 µM [1]: 20 to 25%
Molecule: O=C(Nc1nc2ccc(NC(=O)C34CC5CC(CC(C5)C3)C4)cc2s1)c1ccccc1 [NVP-231]

B1: CpgB (CCNA_01218), bacterial ceramide kinase (Caulobacter vibrioides NA1000) (protein)
chain: T1 sequence (A0A0H3C600 1-330)
notes: full-length gene, N-terminal His tag (pET28a NdeI/EcoRI), expressed in E. coli BL21(DE3), HisTrap purified, soluble; tag removal not mentioned
Km [2]: 19.2 ± 5.5 µM | Km [3]: 290 ± 70 µM
